Holding throughout (assay): AlphaScreen or HTRF; ALPHA: FLAG-tagged domain mixed with biotin-tagged domain (cell-free translation mixtures), streptavidin donor beads, anti-DYKDDDDK antibody with protein A acceptor beads; 100 mM Tris-HCl pH 8.0, 0.01% Tween 20, 1 mg/mL BSA; 25 °C, 24 h; median of duplicate reactions
For experiment [1], the target named is DAPK1_DD (human) (UniProt P53355).
For experiment [2], the target named is FADD_DED-DD (human) (UniProt Q13158).
Experiment [3] deals with CASP8_DED1 (human) (UniProt Q14790).
For experiment [4], the target named is CASP10_DED1-DED2 (human) (UniProt Q92851).
The target in experiment [5] is CASP8_DED1-DED2 (human) (UniProt Q14790).
Experiment [6] concerns the target CFLAR_DED1-DED2 (human) (UniProt O15519).
Experiment [7] addresses RIPK1_DD (human) (UniProt Q13546).
Experiment [8] has as its target TNFRSF1A_DD (human) (UniProt P19438).
Experiment [9] deals with TRADD_DD (human) (UniProt Q15628).
The target in experiment [10] is ASC_PYD-CARD (human) (UniProt Q9ULZ3).
Experiment [11] addresses CASP2_CARD (human) (UniProt P42575).
For experiment [12], the target named is PYDC2_PYD (human) (UniProt Q56P42).
Experiment [13] addresses IRAK3_DD (human) (UniProt Q9Y616).
Experiment [14] deals with CASP1_CARD (human) (UniProt P29466).
In experiment [15] the target is NLRC4_CARD (human) (UniProt Q9NPP4).
Sequence of NLRC4_CARD (human) (Q9NPP4 1-88): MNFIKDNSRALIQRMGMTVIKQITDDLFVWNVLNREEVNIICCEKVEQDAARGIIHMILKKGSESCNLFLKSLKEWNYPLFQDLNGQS

Sequence of FADD_DED-DD (human) (Q13158 whole entry): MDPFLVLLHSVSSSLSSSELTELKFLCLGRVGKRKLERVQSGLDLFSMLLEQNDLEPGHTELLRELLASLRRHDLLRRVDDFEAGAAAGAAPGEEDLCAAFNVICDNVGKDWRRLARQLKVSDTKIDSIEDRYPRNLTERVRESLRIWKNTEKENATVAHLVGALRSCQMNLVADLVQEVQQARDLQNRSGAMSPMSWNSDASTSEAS
Sequence of CRADD_CARD-DD (P78560 whole entry, the tested form may be a part): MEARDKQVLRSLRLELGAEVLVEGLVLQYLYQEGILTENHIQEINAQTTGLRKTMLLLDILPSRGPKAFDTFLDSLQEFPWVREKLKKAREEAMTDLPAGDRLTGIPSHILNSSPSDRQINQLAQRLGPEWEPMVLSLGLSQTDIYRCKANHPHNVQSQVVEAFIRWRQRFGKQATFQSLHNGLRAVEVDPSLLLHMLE
Sequence of IRAK3_DD (human) (Q9Y616 whole entry): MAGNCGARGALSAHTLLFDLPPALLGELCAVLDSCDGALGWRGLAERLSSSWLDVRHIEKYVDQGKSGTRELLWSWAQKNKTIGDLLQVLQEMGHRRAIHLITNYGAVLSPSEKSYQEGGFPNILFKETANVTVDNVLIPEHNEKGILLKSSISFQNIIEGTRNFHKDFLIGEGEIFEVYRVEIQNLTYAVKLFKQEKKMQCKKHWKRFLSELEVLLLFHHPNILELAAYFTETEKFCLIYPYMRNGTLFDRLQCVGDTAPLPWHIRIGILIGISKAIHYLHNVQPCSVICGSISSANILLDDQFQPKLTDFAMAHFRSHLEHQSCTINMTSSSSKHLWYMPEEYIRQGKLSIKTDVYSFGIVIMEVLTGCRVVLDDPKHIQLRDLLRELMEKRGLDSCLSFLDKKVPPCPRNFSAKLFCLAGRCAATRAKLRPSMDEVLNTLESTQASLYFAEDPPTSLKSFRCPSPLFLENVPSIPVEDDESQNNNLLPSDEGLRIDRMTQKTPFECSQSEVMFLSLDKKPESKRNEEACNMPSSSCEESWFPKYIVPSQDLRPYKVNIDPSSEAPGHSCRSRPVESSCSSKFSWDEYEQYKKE
Sequence of FADD_DED-DD (Q13158 whole entry, the tested form may be a part): as the sequence (Q13158 whole entry) above
Sequence of RIPK1_DD (human) (Q13546 583-669): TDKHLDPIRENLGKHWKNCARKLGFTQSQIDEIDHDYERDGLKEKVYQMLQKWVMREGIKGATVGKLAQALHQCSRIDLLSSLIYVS
Sequence of PYDC2_PYD (human) (Q56P42 whole entry): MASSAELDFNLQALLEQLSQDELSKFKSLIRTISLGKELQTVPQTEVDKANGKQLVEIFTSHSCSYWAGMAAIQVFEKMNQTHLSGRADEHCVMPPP
Sequence of CASP1_CARD (P29466 1-91): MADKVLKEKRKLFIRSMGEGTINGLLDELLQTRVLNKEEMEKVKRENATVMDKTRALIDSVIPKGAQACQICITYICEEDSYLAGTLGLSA
Sequence of CASP1_CARD (human) (P29466 1-91): as above
Sequence of TRADD_DD (human) (Q15628 179-289): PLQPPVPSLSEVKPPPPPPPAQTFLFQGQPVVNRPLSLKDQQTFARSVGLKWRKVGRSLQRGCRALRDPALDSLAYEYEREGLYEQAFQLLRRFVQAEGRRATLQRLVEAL
Sequence of CASP2_CARD (human) (P42575 32-121): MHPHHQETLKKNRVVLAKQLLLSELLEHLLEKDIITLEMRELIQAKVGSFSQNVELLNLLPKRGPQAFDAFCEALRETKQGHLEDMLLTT
Sequence of DAPK1_DD (human) (P53355 1312-1396): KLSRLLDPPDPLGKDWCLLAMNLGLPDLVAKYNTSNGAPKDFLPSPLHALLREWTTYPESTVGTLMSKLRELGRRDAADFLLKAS
Sequence of TNFRSF1A_DD (human) (P19438 356-441): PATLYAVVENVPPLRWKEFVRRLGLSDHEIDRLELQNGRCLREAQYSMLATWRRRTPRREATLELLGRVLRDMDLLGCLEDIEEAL
Sequence of ASC_PYD-CARD (human) (Q9ULZ3 whole entry): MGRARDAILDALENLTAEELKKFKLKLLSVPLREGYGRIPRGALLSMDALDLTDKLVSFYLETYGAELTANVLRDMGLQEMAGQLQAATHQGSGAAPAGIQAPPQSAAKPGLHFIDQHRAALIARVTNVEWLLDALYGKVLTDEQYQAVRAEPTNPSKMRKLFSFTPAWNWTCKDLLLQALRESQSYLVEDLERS

Take “PYDC2_PYD (from UniProt Q56P42 1-97) (domain or fragment)”: the ALPHA signal (RLU) in experiment [1] worked out at 970 RLU. For “CASP10_DED1-DED2 (from UniProt Q92851 19-187) (domain or fragment)”, the ALPHA signal (RLU) in experiment [2] was found to be 10200 RLU.

For “RIPK1_DD (from UniProt Q13546 583-669) (domain or fragment)”, the ALPHA signal (RLU) in experiment [2] worked out at 30600 RLU. For the substance “IRAK3_DD (from UniProt Q9Y616 1-596) (domain or fragment)”, the ALPHA signal (RLU) in experiment [3] amounted to 1350 RLU. “FADD_DED-DD (from UniProt Q13158 1-208) (domain or fragment)”: the ALPHA signal (RLU) came to 20700 RLU in [4]; 11000 RLU in [5]; 20100 RLU in experiment [6]; 20000 RLU in experiment [7]; 964 RLU in experiment [8]; 39600 RLU in experiment [9].

On to “CASP1_CARD (from UniProt P29466 1-91) (domain or fragment)”, for which, in experiment [10], the ALPHA signal (RLU) was determined as 4880 RLU.

In the case of “CRADD_CARD-DD (from UniProt P78560 1-199) (domain or fragment)”, the ALPHA signal (RLU) in experiment [11] was 2420 RLU. With “DAPK1_DD (from UniProt P53355 1312-1396) (domain or fragment)”, in [12], the ALPHA signal (RLU) was determined as 3540 RLU. Turning to “TNFRSF1A_DD (from UniProt P19438 356-441) (domain or fragment)”, the ALPHA signal (RLU) in [2] worked out at 5570 RLU.

As for “CASP8_DED1 (from UniProt Q14790 2-80) (domain or fragment)”, in experiment [13], the ALPHA signal (RLU) worked out at 968 RLU. For the substance “ASC_PYD-CARD (from UniProt Q9ULZ3 1-195) (domain or fragment)”, the ALPHA signal (RLU) was 1730 RLU in experiment [14] and 1690 RLU in experiment [15]. For the substance “TRADD_DD (from UniProt Q15628 179-289) (domain or fragment)”, the ALPHA signal (RLU) in experiment [2] came out at 31700 RLU. Still for that read-out and setting: the figure for “CASP8_DED1-DED2 (from UniProt Q14790 1-177) (domain or fragment)” is 9380 RLU.

The values above are taken from paper PMC8564539.
